Experimental data taken from patent publication US20100330107A1.

Tests used:
24P4C12 (human) [1] = target: 24P4C12 (human) (UniProt Q53GD3); assay: FACS on LNCaP cells, ADC at 106.667 nM, anti-hIgG-PE detection
24P4C12 (human) [2] = target: 24P4C12 (human) (UniProt Q53GD3); assay: FACS on LNCaP cells, ADC at 0.878 nM, anti-hIgG-PE detection
24P4C12 (human) [3] = target: 24P4C12 (human) (UniProt Q53GD3); assay: FACS on LNCaP cells, ADC at 160.000 nM, anti-hIgG-PE detection
24P4C12 (human) [4] = target: 24P4C12 (human) (UniProt Q53GD3); assay: FACS on LNCaP cells, ADC at 71.111 nM, anti-hIgG-PE detection
24P4C12 (human) [5] = target: 24P4C12 (human) (UniProt Q53GD3); assay: FACS on LNCaP cells, ADC at 0.011 nM, anti-hIgG-PE detection
24P4C12 (human) [6] = target: 24P4C12 (human) (UniProt Q53GD3); assay: FACS on LNCaP cells, ADC at 23.704 nM, anti-hIgG-PE detection
24P4C12 (human) [7] = target: 24P4C12 (human) (UniProt Q53GD3); assay: FACS on LNCaP cells, ADC at 7.901 nM, anti-hIgG-PE detection
24P4C12 (human) [8] = target: 24P4C12 (human) (UniProt Q53GD3); assay: FACS on LNCaP cells, ADC at 0.033 nM, anti-hIgG-PE detection
24P4C12 (human) [9] = target: 24P4C12 (human) (UniProt Q53GD3); assay: FACS on LNCaP cells, ADC at 0.293 nM, anti-hIgG-PE detection
24P4C12 (human) [10] = target: 24P4C12 (human) (UniProt Q53GD3); assay: FACS saturation binding on LNCaP cells with endogenous 24P4C12, one site binding fit
24P4C12 (human) [11] = target: 24P4C12 (human) (UniProt Q53GD3); assay: FACS on LNCaP cells, ADC at 2.634 nM, anti-hIgG-PE detection
24P4C12 (human) [12] = target: 24P4C12 (human) (UniProt Q53GD3); assay: FACS on LNCaP cells, ADC at 0.098 nM, anti-hIgG-PE detection

Chain of UniProt Q53GD3 (Q53GD3 whole entry): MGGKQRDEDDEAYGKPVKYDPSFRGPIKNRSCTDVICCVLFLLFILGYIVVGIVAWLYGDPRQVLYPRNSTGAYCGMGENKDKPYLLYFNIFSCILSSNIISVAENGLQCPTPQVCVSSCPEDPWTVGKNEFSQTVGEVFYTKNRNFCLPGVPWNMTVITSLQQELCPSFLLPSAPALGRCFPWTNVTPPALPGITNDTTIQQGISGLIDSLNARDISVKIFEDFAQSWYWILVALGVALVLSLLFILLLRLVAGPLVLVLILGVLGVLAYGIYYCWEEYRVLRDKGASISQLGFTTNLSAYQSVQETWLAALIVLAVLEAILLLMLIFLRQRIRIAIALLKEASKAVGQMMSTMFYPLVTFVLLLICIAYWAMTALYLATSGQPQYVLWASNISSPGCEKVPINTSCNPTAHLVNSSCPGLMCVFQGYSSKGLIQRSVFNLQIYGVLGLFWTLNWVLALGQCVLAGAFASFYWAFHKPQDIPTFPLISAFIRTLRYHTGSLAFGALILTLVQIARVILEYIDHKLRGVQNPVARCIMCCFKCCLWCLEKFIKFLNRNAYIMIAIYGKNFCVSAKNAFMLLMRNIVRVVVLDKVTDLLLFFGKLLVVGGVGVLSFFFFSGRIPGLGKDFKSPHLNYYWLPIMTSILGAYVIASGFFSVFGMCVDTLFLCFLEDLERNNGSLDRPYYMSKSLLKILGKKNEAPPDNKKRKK

- MFI (24P4C12 (human) [1]): 114 MFI
- MFI (24P4C12 (human) [2]): 54 MFI
- MFI (24P4C12 (human) [3]): 116 MFI
- MFI (24P4C12 (human) [4]): 108 MFI
- MFI (24P4C12 (human) [5]): 7 MFI
- MFI (24P4C12 (human) [6]): 97 MFI
- MFI (24P4C12 (human) [7]): 86 MFI
- MFI (24P4C12 (human) [8]): 9 MFI
- MFI (24P4C12 (human) [9]): 28 MFI
- Kd (24P4C12 (human) [10]): 1.05 nM
- MFI (24P4C12 (human) [11]): 70 MFI
- MFI (24P4C12 (human) [12]): 15 MFI
B1: Ha5-1(5)2.1vcMMAE (antibody, human IgG2, kappa, V domains shown)
VH: QVQLVESGGGVVQPGRSLRLSCAASGFTFSSYGMHWVRQAPGKGLEWVAVMSYDGSKKFYTDSVKGRFTISRDNSKNTLYLQMNSLRAEDTAVYYCARDGGDYVRYHYYGMDVWGQGTTVTVSS
VL: DIQMTQSPSTLSASIGDRVTITCRASQGISYYLAWYQQKPGKIPKLLIYDTSSLQSGVPSRFSGSRSGTDLSLTISSLQPEDVATYYCQRYDSAPLTFGGGTKVEIKR
modifications: vcMMAE (Val-Cit linker with monomethyl auristatin E) on cysteine thiols freed by partial reduction with TCEP; p about 3.6 drugs per antibody; positions not given
